In series [1] the test system is U118MG glioma subcutaneous tumor. Description: In vivo anti-tumor activity in U118MG subcutaneous tumor mice (Experimental Example 11). Also noted: species or system NOD-SCID mice. As for the experimental part:
The mice in this experiment were purchased from SPF Co., LTD: the germline was NOD-SCID, the grade was SPF, male, 6-8 weeks old; U118MG neuroglioma cells were purchased from Jennio.
The conjugate AP2 above was formulated into a 1.94 mg/mL solution with PBS. Conjugate 20 was respectively formulated into 0.625 mg/mL, 1.25 mg/mL and 2.06 mg/mL solutions with PBS (all calculated based on the amount of aptamer). MMAE (purchased from Shanghai Macklin Inc., Lot No. C12886583) was dissolved into a 0.038 mg/mL solution with a mixed solution of 10% DMSO+90% PBS (volume ratio).
The day of inoculation is designated as D1, and administration is performed once on D8, D12, D16 and D20.
36 mice were randomly divided into the following 6 groups (6 mice per group):
For blank control group 1, PBS was administered by tail vein injection with a single administration volume of 10 μL/g. […]
The long diameters and short diameters of the tumors were measured in vitro. The tumor volume was calculated according to the equation ½ (long diameter×short diameter^2). Prior to the first administration on D8, the tumor volumes in each group were measured and the average tumor volumes were recorded; the tumor volumes in each group were measured and recorded from D16 (twice a week).

For series [2], the system named is U118MG subcutaneous tumor. Description: Long-interval administration in U118MG subcutaneous tumor model mice (Experimental Example 23). The format is in vivo. Particulars: 0.1 or 0.3 mg/kg subcutaneous on D8, D11, D15, D29, D32, D36. How it is done:
According to the method of Experimental Example 4, 42 mice inoculated with U118MG subcutaneous tumor were obtained, and were further fed after injection.
MMAE was dissolved into solutions with concentrations of 0.03 mg/mL and 0.01 mg/mL with 10% DMSO+90% serum-free DMEM medium (volume ratio). Conjugate 39 was dissolved into solutions with concentrations of 0.5 mg/mL and 0.165 mg/mL (based on aptamer). Comparative conjugate 44 was dissolved into solutions with concentrations of 0.5 mg/mL and 0.165 mg/mL (based on aptamer).
7 days after inoculation of U118MG cells, all mice were randomly divided into seven groups (6 mice per group), and each group of mice was administered. […] The mice were weighed before administration and the administration volume was calculated according to weight. […]
The tumor volumes were measured on D1, D9, D16, D19, D21, D24, D26, D29, D32, D36, D39, D43, D47, D53, D57, D60, D64, D67, D71, D74, D78, D81, D84, D88, D92, D95, and D99, wherein the blank control group was measured on D53, and test groups 7a, 7b and control group 7c were measured on D60, and then the experiment was terminated.
The long diameters and short diameters of the tumors were measured in vitro. The tumor volume was calculated according to the equation ½ (long diameter×short diameter^2). After the experiment was terminated, the tumor tissues were taken and weighed, and the average value was calculated.

Series [3] deals with U118MG in situ brain glioma. Particulars: mouse, in vivo, 3 mg/kg.
Protocol: (§1) U118MG human glioma cells in the logarithmic growth phase cultured as described in experimental Example 4 were selected and digested with 0.25% pancreatic enzyme. The cells were collected, the supernatant was aspirated, and then the cells were resuspended in DMEM medium supplemented with 10% FBS to be formulated into a cell culture solution with a cell density of 4×10^7 cells/mL.
(§2) Experimental animals were 16 NOD-SCID mice (male, 12 weeks old, purchased from SPF (Beijing) Biotechnology Co., LTD.). […]
(§3) AP1, AP2 and comparative AP11 were respectively dissolved into conjugate solutions with a concentration of 0.3 mg/mL (based on aptamer) with 1×DMEM medium. […] The administration dosage for all animals was calculated according to body weight, the administration volume was all 10 μL/g, and the administration dosage was 3 mg/kg per animal (based on the amount of aptamer). […]
(§4) At 24 h after administration, one mouse in each group was respectively euthanized and brain tissue was taken, and the remaining mice were euthanized at 48 h after administration and brain tissues were taken. The brain tissues of mice were taken for fluorescence imaging in IVIS Lumina Series III.
Series [4] has as its system U118MG glioma subcutaneous tumor. Description: In vivo distribution in U118MG cell subcutaneous tumor model mice (Experimental Example 4). More on the design: species or system NOD-SCID mice. How it is done:
U118MG human glioma cells in the logarithmic growth phase were selected and digested (0.25% pancreatic enzyme).
The mice were further fed for 20 days after injection.
The mice inoculated with U118MG above were randomly divided into 3 groups (4 mice per group). For the 4 mice per group, the administration volume was calculated according to 10 μL/g body weight, and AP1, AP2 and comparative AP11 were respectively administered to different groups of mice by tail vein injection and designated as test group 4A1, test group 4A2 and control group 4A3. Thus, the administration dosage of each mouse was 3 mg/kg (based on aptamer). Another mouse inoculated with U118MG above was administered with 1×DMEM medium by tail vein injection (the administration volume was 10 μL/g body weight), and designated as blank control group 4Y.

Series [5] relates to U118MG subcutaneous tumor. The series is described as follows: In vivo distribution of conjugates with different modifications in U118MG subcutaneous tumor model mice (Experimental Example 6). Also noted: species or system NOD-SCID mice. As to conditions: 3 mg/kg tail vein. How it is done:
U118MG subcutaneous tumor model mice were prepared according to the method described in experimental Example 4.
9 mice were divided into 3 groups (3 mice per group). AP2, AP3 and comparative AP12 solutions were respectively administered to each mouse of each group by tail vein injection. […] The three groups of mice were respectively designated as test group 6A, test group 6B and test group 6C. […] On Day 10 after administration, one mouse of blank control group 6Y and one mouse of test group 6A was respectively euthanized and tumor tissues were taken for fluorescence imaging, and the results are shown in FIG. 5H. In FIGS. 5A-5H, Blank represents blank control group 6Y.

Series [6] concerns U118MG in situ brain glioma. The series is described as follows: In vivo distribution in U118MG cell tumor in situ model mice (Experimental Example 5). Particulars: control groups 5C (intrathecal 100 μg) and 5F (tail vein 3 mg/kg); 24 h and 48 h.
Protocol: as §1, §2, §3, §4
Another series relates to A549 subcutaneous tumors. The series is described as follows: In vivo activity in A549 subcutaneous tumor model mice (Experimental Example 25). As to conditions: 5 mg/kg (MMAE equivalent 0.3 mg/kg) D8, D12, D15, D19; 0.6 mg/kg MMAE equivalent D46, D50, D54; at each period of time. How it is done: According to the method of Experimental Example 4, 30 mice inoculated with A549 subcutaneous tumors were obtained, and were further fed after injection.
Conjugate 20 and conjugate 39 were dissolved into conjugate solutions with a concentration of 1 mg/mL (based on aptamer) with serum-free DMEM medium. Comparative conjugate 43 was dissolved into a conjugate solution with a concentration of 0.8 mg/mL (based on aptamer). MMAE was dissolved into a solution with a concentration of 0.06 mg/mL with 10% DMSO+90% serum-free DMEM medium (volume ratio).
7 days after the inoculation of A549 human lung cancer cells, all mice were divided into groups (6 mice each group), and each mouse was administered. The day of administration was designated as D8. The mice were weighed before administration, and the administration volume was calculated according to mouse body weight.
Each group of mice was administered once on D8, D12, D15, and D19, four times in total. […]
Tumor volumes were measured on D1, D9, D16, D19, D22, D26, D30, D36, D40, D43, D47, D50, D54, and D57, wherein the blank control group was measured on D54, and then the experiment was terminated.
The long diameters and short diameters of the tumors were measured in vitro. The tumor volume was calculated according to the equation ½ (long diameter×short diameter^2).

Non-standard residues stand in square brackets, D forms with d. Residues, ends and D or L forms follow the SMILES beside them. *: point of attachment. Dolaproine = CO[C@@H]([C@@H]1CCCN1)[C@@H](C)C(=O)O; Dil = CC[C@H](C)[C@H](NC)[C@@H](CC(=O)O)OC; {MMAE} = monomethyl auristatin E payload; X1 = C[C@@H](N*)[C@@H](O)c1ccccc1; {Cy5} = cyanine 5 fluorescent dye; NMeV = CN[C@H](C(=O)O)C(C)C

For `CC[C@H](C)[C@@H]([C@@H](CC(=O)N1CCC[C@H]1[C@H](OC)[C@@H](C)C(=O)N[C@H](C)[C@@H](O)c1ccccc1)OC)N(C)C(=O)[C@@H](NC(=O)[C@@H](NC)C(C)C)C(C)C` [MMAE, Monomethylauristatin E, reference compound] (H-[NMeV]V[Dil][Dolaproine]-X1), the “growth rate of tumor volume” value is reported as “growth rate of the tumor volume was reduced” in series [1] (control group 3: 0.3 mg/kg tail vein on D8, D12, D16, D20) and “growth rate of tumor volume was reduced” in series [2].
Regarding “CY5-CmUmGmGmAmGmUmUmCmAmGmAmCmGmUmGmUmUmGmCmUmCmUmUmCmCmGmAmUmCmUmCm [AP2]”, the “fluorescence signal at brain glioma” value in series [3] was “obvious fluorescence signals at both 24 and 48 h”. In series [4] (mouse, in vivo), the “fluorescence signal in mice / at site of tumor inoculation” value is listed as “strong fluorescence signal at the sites of tumor inoculation”. Also, in series [1] (control group 2: 15.5 mg/kg tail vein on D8, D12, D16, D20), the “tumor volume over time” value is on record as “increased rapidly”. Moreover, the “fluorescence intensity in vivo / tumor” value in series [5] (4 h to 24 h after administration) is on record as “still show high fluorescence intensity”. Besides, the “fluorescent signal in vivo / tumor” value in series [5] (48 h to Day 10 after administration) was “still show strong fluorescent signal”.
In the case of “CY5-UfCfUfAUfGGCfUfGCfCfGAUfCfUfGGUfCfUfCfCfAUfGUfACfGUf (UCUAUGGCUGCCGAUCUGGUCUCCAUGUACGU; 2'-fluoro at CU, RNA at AG, 5' {Cy5}, backbone not given here) [comparative AP11, reference compound]”, in series [4] (3 mg/kg tail vein injection, 1 h, 4 h, 24 h, 48 h after administration), the “fluorescence signal in mice / at site of tumor inoculation” value is recorded as “substantially no or weak fluorescence signal”. The “fluorescence signal at the tumor site, brain tissue” value in series [6] is on record as “no obvious fluorescence signal at the tumor site”.
“MMAE-CmUmGmGmAmGmUmUmCmAmGmAmCmGmUmGmUmUmGmCmUmCmUmUmCmCmGmAmUmCmUmCm (CUGGAGUUCAGACGUGUUGCUCUUCCGAUCUC; all 2'-O-methyl, 5' {MMAE}, backbone not given here) [conjugate 20]”: the “tumor volume versus control groups 25b (MMAE) and 25e (comparative conjugate 43)” value in the series on A549 subcutaneous tumors was “smaller than those of control groups 25b and 25e”.
Same read-out and setting: next, “MMAE-CmUmGmGmAmGmUmUmCmAmGmAmCmGmUmUmGmUmGmCmUmCmUmUm (CUGGAGUUCAGACGUUGUGCUCUU; all 2'-O-methyl, 5' {MMAE}, backbone not given here) [conjugate 39]”: “smaller than those of control groups 25b and 25e”.

These data come from patent US20250325675A1, “APTAMER, CONJUGATE, COMPOSITION, METHOD FOR PREPARING SAME, AND USE THEREOF” (priority 2022, published 2025).
